In the RNAGym collection of RNA variant scans (doi:10.1073/pnas.2313332121):

B1: TPR t1 (parent)
chain: GACCAAUCUGCCCUCAGAGCUCGAGAACAUCUUCGGAUGCAGAGGAGGCAGGCUUCGGUGGCGCGAUAGCGCCAACGUCCUCAACCUCCAAUGCAUCCCACCACAUGAUGAUGCCUGAAGAGCCUUGGUUUUUUG

Variants of: B1
Assay: polymerase ribozyme fitness, log enrichment relative to wild type (log ratio); higher = more active; in vitro selection for triplet polymerase activity
Summary of the method: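 Fitness compares each genotype's enrichment to that of the wild type on a logarithmic scale, averaging replicates with inverse-variance weights. The logarithm is base 2. Enrichment came from Illumina sequencing of input and output libraries after one triplicate round of in vitro selection, which included frozen incubation at −7 °C, of PCR-built, transcribed mutant libraries of each subunit of a heterodimeric triplet polymerase ribozyme. Only genotypes with ≥10 input reads and ≥1 read per output were kept.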

In order of falling “polymerase ribozyme fitness (log ratio)” value:
1. GACCAAUCUGCCCUCAGAGCUCGAGAACAUCUUCGGAUGCAGAGGAGGCAGGCUUCGGUGUCGCGAUAGCGCCAACGUCCUCAACCUCCAAUGCAUCCCACCACAUGAUGAUGCCUGAAGUGCCUUGGUUUUUUG [G61U A121U]  1.48
2. GACCAAUCUGCCCUCAGAGCUCGAGAACAUCUUCGGAUGCAGAGGAGGCAGGCUUCGGUGCCGCGAUAGCGCCAACGUCCUCAACCUCCAAUGCAUCCCACCACAUGAUGAUGCCUGAAAAGCCUUGGUUUUUUG [G61C G120A]  0.0588
3. GACCAAUCUGCCCUCAGAGCUCGAGAACAUCUUCGGAUGCAGAGGAGGCAGGCUUCGGUGUCGCGAUAGCGCCAACGUCCUGAACCUCCAAUGUAUCCCACCACAUGAUGAUGCCUGAAGAGCCUUGGUUUUUUG [G61U C82G C94U]  -0.714
4. GACCAAUCUGCCCUCAGAGCUCGAGAACAUCUUCGGAUGCAGAGGAGGCAGGCUUCGGUGUCGCGAUAGCGCCAACGUCCUCAACCUCCAAUGGAUCCCACCACAUGAUGAUGCCUGAAGAGCCUUGGUUUUUUG [G61U C94G]  -0.934
5. GACCAAUCUGCCCUCAGAGCUCGAGAACAUCUUCGGAUGCAGAGGAGGCAGGCUUCGGUGUCGCGAUAGCGCCAACGUACUCAACCUCCAAUGCAUCCCACCACAUGAUGAUGCCUGAAGAGCCUUGGUUUUUUG [G61U C79A]  -0.952
6. GACCAAUCUGCCCUCAGAGCUCGAGAACAUCUUCGGAUGCAGAGGAGGCAGGCUUCGGUGUCGCGAUAGCGCCAACGUCCUCAACCUCCAAUGCAUCCCACCACAUGAUGAUGACUGAAGAGCCUUGGUUUUUUG [G61U C114A]  -1.12
7. GACCAAUCUGCCCUCAGAGCUCGAGAACAUCUUCGGAUGCAGAGGAGGCAGGCUUCGGUGUCGCGAUAGCGCCAACGUCCUCAACGUCCAAUGCAUCCCACCACAUGAUGAUGCCUGAAGAGCCUUGGUUUUUUG [G61U C86G]  -1.55
8. GACCAAUCUGCCCUCAGAGCUCGAGAACAUCUUCGGAUGCAGAGGAGGCAGGCUUCGGUGUCGCGAUAGCGCCAACGUCCUCCACCUCGAAUGCAUCCCACCACAUGAUGAUGCCUGAAGAGCCUUGGUUUUUUG [G61U A83C C89G]  -1.83
9. GACCAAUCUGCCCUCAGAGCUCGAGAACAUCUUCGGAUGCAGAGGAGGCAGGCUUCGGUGCCGCGAUAGCGCCAACGUCCUCAACCACCAAUGCAUCCCACCACAUGAUGAUGCCUGAAGAGCCUUGGUUUUUUG [G61C U87A]  -1.83
10. GACCAAUCUGCCCUCAGAGCUCGAGAACAUCUUCGGAUGCAGAGGAGGCAGGCUUCGGUGCCGCGAUAGCGCCAACGUCCUCAACAUCCAAUGCAUCCCACCACAUGAUGAUGCCUGAAGAGCCUUGGUUUUUUG [G61C C86A]  -2.15
11. GACCAAUCUGCCCUCAGAGCUCGAGAACAUCUUCGGAUGCAGAGGAGGCAGGCUUCGGUGCCGCGAUAGCGCCAACGUCCUCAACCUCCAAUGCAUCCCACCACAUGAUGAUGACUGAAGAGCCUUGGUUUUUUG [G61C C114A]  -2.18
12. GACCAAUCUGCCCUCAGAGCUCGAGAACAUCUUCGGAUGCAGAGGAGGCAGGCUUCGGUGCCGCGAUAGCGCCAACGUCCUCAACCUCCAAUGCAUCCCACCACAUGAUGAUGCCUAAAGAGCCUUGGUUUUUUG [G61C G117A]  -2.2
13. GACCAAUCUGCCCUCAGAGCUCGAGAACAUCUUCGGAUGCAGAGGAGGCAGGCUUCGGUGCCGCGAUAGCGCCAACGUCCUCAACCUCCAAUGCAUCCCAGCACAUGAUGACGCCUGAAGAGCCUUGGUUUUUUG [G61C C101G U112C]  -2.46
14. GACCAAUCUGCCCUCAGAGCUCGAGAACAUCUUCGGAUGCAGAGGAGGCAGGCUUCGGUGCCGCGAUAGCGCCAACGUCCUCAACCUCCAAUGCAUCCCACCACAUGAUGAUGCCUGAAGAACCUUGGUUUUUUG [G61C G122A]  -2.5
15. GACCAAUCUGCCCUCAGAGCUCGAGAACAUCUUCGGAUGCAGAGGAGGCAGGCUUCGGUGUCGCGCUAGCGCCAACGUCCUCAACCUCCAAUGCAUCCCACCACAUGAUGAUGACUGAAGAGCCUUGGUUUUUUG [G61U A66C C114A]  -2.88
16. GACCAAUCUGCCCUCAGAGCUCGAGAACAUCUUCGGAUGCAGAGGAGGCAGGCUUCGGUGCCGCGAUAGCGCCAACGUCCUCAACCUCCAAUGCAUCCCACCACAUGAUGAUGCCUGAAGAGCCUUGAUUUUUUG [G61C G128A]  -3.41
17. GACCAAUCUGCCCUCAGAGCUCGAGAACAUCUUCGGAUGCAGAGGAGGCAGGCUUCGGUGCCGCGAUAGCGCCAACGUCCUCAACCUCCAAUGCAUCCCACCACAUGAUGAUGCCUGAAGAGCCUUGUUUUUUUG [G61C G128U]  -3.46
18. GACCAAUCUGCCCUCAGAGCUCGAGAACAUCUUCGGAUGCAGAGGAGGCAGGCUUCGGUGCCGCGAUAGCGCCAACGCCCUCAACCUCCAAUGCAUCCCACCACAUGAUGAUGCCUGAAGAGCCUUGGUUUUAUG [G61C U78C U133A]  -3.51
19. GACCAAUCUGCCCUCAGAGCUCGAGAACAUCUUCGGAUGCAGAGGAGGCAGGCUUCGGUGUCGCGAUAGCGCCAGCGUCCUGAACCUCCAAUGCAUCCCCCCACAUGAUGAUUCCUGAAGAGCCUUGGUUUUUUG [G61U A75G C82G A100C G113U]  -5.51
20. GACCAAUCUGCCCUCAGAGCUCGAGAACAUCUUCGGAUGCAGAGGAGGCAGGCUUCGGUGCCGCGAUAGCGCCAACGUCCUCAACCUUCCAUGCAUCCCACCACAUGAUUAUGCCUGAAGAGCCUUGGUUUUUUG [G61C C88U A90C G110U]  -5.87
21. GACCAAUCUGCCCUCAGAGCUCGAGAACAUCUUCGGAUGCAGAGGAGGCAGGCUUCGGUGUCGCGAUAGCGCCAACGUCCUCAACCUCCAGUACAUCCCACCACUUGAUGAUGCCUUAAGAGCCUUGGUUUUUUG [G61U A91G G93A A105U G117U]  -6.5
